Laboratory results as given in US20020058253A1.

Biological target: QL9, nonameric variant of p2Ca (2-oxoglutarate dehydrogenase); residues not printed peptide on H-2Ld (mouse)
Test: value cited from Manning et al. 1999; single-chain

- Kd: 3.2 µM
Substance: 2C TCR
